The values that follow come from patent publication US20260327578A1, “TRANSGLUTAMINASES AND USES THEREOF” (CURIE CO. INC., priority 2023, published 2026).

B1: S5: Tgase variant S2P Q39N Q51E relative to SEQ ID NO: 2 (protein, UniProt P81453 77-407, looked up, variant S2P Q39N Q51E)
Protein-glutamine …: DPDDRVTPPAEPLDRMPDPYRPSYGRAETVVNNYIRKWNQVYSHRDGRKQEMTEEQREWLSYGCVGVTWVNSGQYPTNRLAFASFDEDRFKNELKNGRPRSGETRAEFEGRVAKESFDEEKGFQRAREVASVMNRALENAHDESAYLDNLKKELANGNDALRNEDARSPFYSALRNTPSFKERNGGNHDPSRMKAVIYSKHFWSGQDRSSSADKRKYGDPDAFRPAPGTGLVDMSRDRNIPRSPTSPGEGFVNFDYGWFGAQTEADADKTVWTHGNHYHAPNGSLGAMHVYESKFRNWSEGYSDFDRGAYVITFIPKSWNTAPDKVKQGWP
B2: S10: Tgase variant S2P Q124E K151R K152R relative to SEQ ID NO: 2 (protein, UniProt P81453 77-407, looked up, variant S2P Q124E K151R K152R)
Protein-glutamine …: DPDDRVTPPAEPLDRMPDPYRPSYGRAETVVNNYIRKWQQVYSHRDGRKQQMTEEQREWLSYGCVGVTWVNSGQYPTNRLAFASFDEDRFKNELKNGRPRSGETRAEFEGRVAKESFDEEKGFERAREVASVMNRALENAHDESAYLDNLRRELANGNDALRNEDARSPFYSALRNTPSFKERNGGNHDPSRMKAVIYSKHFWSGQDRSSSADKRKYGDPDAFRPAPGTGLVDMSRDRNIPRSPTSPGEGFVNFDYGWFGAQTEADADKTVWTHGNHYHAPNGSLGAMHVYESKFRNWSEGYSDFDRGAYVITFIPKSWNTAPDKVKQGWP
B3: S12: Tgase variant S2P Q124L K151R K152R relative to SEQ ID NO: 2 (protein, UniProt P81453 77-407, looked up, variant S2P Q124L K151R K152R)
Protein-glutamine …: DPDDRVTPPAEPLDRMPDPYRPSYGRAETVVNNYIRKWQQVYSHRDGRKQQMTEEQREWLSYGCVGVTWVNSGQYPTNRLAFASFDEDRFKNELKNGRPRSGETRAEFEGRVAKESFDEEKGFLRAREVASVMNRALENAHDESAYLDNLRRELANGNDALRNEDARSPFYSALRNTPSFKERNGGNHDPSRMKAVIYSKHFWSGQDRSSSADKRKYGDPDAFRPAPGTGLVDMSRDRNIPRSPTSPGEGFVNFDYGWFGAQTEADADKTVWTHGNHYHAPNGSLGAMHVYESKFRNWSEGYSDFDRGAYVITFIPKSWNTAPDKVKQGWP
B4: S16: Tgase variant S2P Q50S Q74A K91H Q124L K151R K152R relative to SEQ ID NO: 2 (protein, UniProt P81453 77-407, looked up, variant S2P Q50S Q74A K91H Q124L K151R K152R)
Protein-glutamine …: DPDDRVTPPAEPLDRMPDPYRPSYGRAETVVNNYIRKWQQVYSHRDGRKSQMTEEQREWLSYGCVGVTWVNSGAYPTNRLAFASFDEDRFHNELKNGRPRSGETRAEFEGRVAKESFDEEKGFLRAREVASVMNRALENAHDESAYLDNLRRELANGNDALRNEDARSPFYSALRNTPSFKERNGGNHDPSRMKAVIYSKHFWSGQDRSSSADKRKYGDPDAFRPAPGTGLVDMSRDRNIPRSPTSPGEGFVNFDYGWFGAQTEADADKTVWTHGNHYHAPNGSLGAMHVYESKFRNWSEGYSDFDRGAYVITFIPKSWNTAPDKVKQGWP
B5: S9: Tgase variant S2P Q51I K95I relative to SEQ ID NO: 2 (protein, UniProt P81453 77-407, looked up, variant S2P Q51I K95I)
Protein-glutamine …: DPDDRVTPPAEPLDRMPDPYRPSYGRAETVVNNYIRKWQQVYSHRDGRKQIMTEEQREWLSYGCVGVTWVNSGQYPTNRLAFASFDEDRFKNELINGRPRSGETRAEFEGRVAKESFDEEKGFQRAREVASVMNRALENAHDESAYLDNLKKELANGNDALRNEDARSPFYSALRNTPSFKERNGGNHDPSRMKAVIYSKHFWSGQDRSSSADKRKYGDPDAFRPAPGTGLVDMSRDRNIPRSPTSPGEGFVNFDYGWFGAQTEADADKTVWTHGNHYHAPNGSLGAMHVYESKFRNWSEGYSDFDRGAYVITFIPKSWNTAPDKVKQGWP
B6: S8: Tgase variant S2P K49T Q74F relative to SEQ ID NO: 2 (protein, UniProt P81453 77-407, looked up, variant S2P K49T Q74F)
Protein-glutamine …: DPDDRVTPPAEPLDRMPDPYRPSYGRAETVVNNYIRKWQQVYSHRDGRTQQMTEEQREWLSYGCVGVTWVNSGFYPTNRLAFASFDEDRFKNELKNGRPRSGETRAEFEGRVAKESFDEEKGFQRAREVASVMNRALENAHDESAYLDNLKKELANGNDALRNEDARSPFYSALRNTPSFKERNGGNHDPSRMKAVIYSKHFWSGQDRSSSADKRKYGDPDAFRPAPGTGLVDMSRDRNIPRSPTSPGEGFVNFDYGWFGAQTEADADKTVWTHGNHYHAPNGSLGAMHVYESKFRNWSEGYSDFDRGAYVITFIPKSWNTAPDKVKQGWP
B7: S7: Tgase variant S2P K49T Q74M relative to SEQ ID NO: 2 (protein, UniProt P81453 77-407, looked up, variant S2P K49T Q74M)
Protein-glutamine …: DPDDRVTPPAEPLDRMPDPYRPSYGRAETVVNNYIRKWQQVYSHRDGRTQQMTEEQREWLSYGCVGVTWVNSGMYPTNRLAFASFDEDRFKNELKNGRPRSGETRAEFEGRVAKESFDEEKGFQRAREVASVMNRALENAHDESAYLDNLKKELANGNDALRNEDARSPFYSALRNTPSFKERNGGNHDPSRMKAVIYSKHFWSGQDRSSSADKRKYGDPDAFRPAPGTGLVDMSRDRNIPRSPTSPGEGFVNFDYGWFGAQTEADADKTVWTHGNHYHAPNGSLGAMHVYESKFRNWSEGYSDFDRGAYVITFIPKSWNTAPDKVKQGWP
B8: S15: Tgase variant S2P Q51P Q56M Q74A K91E relative to SEQ ID NO: 2 (protein, UniProt P81453 77-407, looked up, variant S2P Q51P Q56M Q74A K91E)
Protein-glutamine …: DPDDRVTPPAEPLDRMPDPYRPSYGRAETVVNNYIRKWQQVYSHRDGRKQPMTEEMREWLSYGCVGVTWVNSGAYPTNRLAFASFDEDRFENELKNGRPRSGETRAEFEGRVAKESFDEEKGFQRAREVASVMNRALENAHDESAYLDNLKKELANGNDALRNEDARSPFYSALRNTPSFKERNGGNHDPSRMKAVIYSKHFWSGQDRSSSADKRKYGDPDAFRPAPGTGLVDMSRDRNIPRSPTSPGEGFVNFDYGWFGAQTEADADKTVWTHGNHYHAPNGSLGAMHVYESKFRNWSEGYSDFDRGAYVITFIPKSWNTAPDKVKQGWP
B9: S6: Tgase variant S2P Q56M Q74S relative to SEQ ID NO: 2 (protein, UniProt P81453 77-407, looked up, variant S2P Q56M Q74S)
Protein-glutamine …: DPDDRVTPPAEPLDRMPDPYRPSYGRAETVVNNYIRKWQQVYSHRDGRKQQMTEEMREWLSYGCVGVTWVNSGSYPTNRLAFASFDEDRFKNELKNGRPRSGETRAEFEGRVAKESFDEEKGFQRAREVASVMNRALENAHDESAYLDNLKKELANGNDALRNEDARSPFYSALRNTPSFKERNGGNHDPSRMKAVIYSKHFWSGQDRSSSADKRKYGDPDAFRPAPGTGLVDMSRDRNIPRSPTSPGEGFVNFDYGWFGAQTEADADKTVWTHGNHYHAPNGSLGAMHVYESKFRNWSEGYSDFDRGAYVITFIPKSWNTAPDKVKQGWP
B10: S14: Tgase variant S2P Q50S Q51E Q56E relative to SEQ ID NO: 2 (protein, UniProt P81453 77-407, looked up, variant S2P Q50S Q51E Q56E)
Protein-glutamine …: DPDDRVTPPAEPLDRMPDPYRPSYGRAETVVNNYIRKWQQVYSHRDGRKSEMTEEEREWLSYGCVGVTWVNSGQYPTNRLAFASFDEDRFKNELKNGRPRSGETRAEFEGRVAKESFDEEKGFQRAREVASVMNRALENAHDESAYLDNLKKELANGNDALRNEDARSPFYSALRNTPSFKERNGGNHDPSRMKAVIYSKHFWSGQDRSSSADKRKYGDPDAFRPAPGTGLVDMSRDRNIPRSPTSPGEGFVNFDYGWFGAQTEADADKTVWTHGNHYHAPNGSLGAMHVYESKFRNWSEGYSDFDRGAYVITFIPKSWNTAPDKVKQGWP
B11: S11: Tgase variant S2P Q124I K151R K152R relative to SEQ ID NO: 2 (protein, UniProt P81453 77-407, looked up, variant S2P Q124I K151R K152R)
Protein-glutamine …: DPDDRVTPPAEPLDRMPDPYRPSYGRAETVVNNYIRKWQQVYSHRDGRKQQMTEEQREWLSYGCVGVTWVNSGQYPTNRLAFASFDEDRFKNELKNGRPRSGETRAEFEGRVAKESFDEEKGFIRAREVASVMNRALENAHDESAYLDNLRRELANGNDALRNEDARSPFYSALRNTPSFKERNGGNHDPSRMKAVIYSKHFWSGQDRSSSADKRKYGDPDAFRPAPGTGLVDMSRDRNIPRSPTSPGEGFVNFDYGWFGAQTEADADKTVWTHGNHYHAPNGSLGAMHVYESKFRNWSEGYSDFDRGAYVITFIPKSWNTAPDKVKQGWP
B12: S13: Tgase variant S2P Q124N K151R K152R relative to SEQ ID NO: 2 (protein, UniProt P81453 77-407, looked up, variant S2P Q124N K151R K152R)
Protein-glutamine …: DPDDRVTPPAEPLDRMPDPYRPSYGRAETVVNNYIRKWQQVYSHRDGRKQQMTEEQREWLSYGCVGVTWVNSGQYPTNRLAFASFDEDRFKNELKNGRPRSGETRAEFEGRVAKESFDEEKGFNRAREVASVMNRALENAHDESAYLDNLRRELANGNDALRNEDARSPFYSALRNTPSFKERNGGNHDPSRMKAVIYSKHFWSGQDRSSSADKRKYGDPDAFRPAPGTGLVDMSRDRNIPRSPTSPGEGFVNFDYGWFGAQTEADADKTVWTHGNHYHAPNGSLGAMHVYESKFRNWSEGYSDFDRGAYVITFIPKSWNTAPDKVKQGWP

The subject of this assay is N,N-dimethylcasein. Description: Chemostability: residual Tgase activity after 24 hour incubation at 20-30 °C, normalized to wild-type. It is filed as biochemical. Particulars: improvement relative to wild-type mature Tgase (SEQ ID NO: 2); residual activity after 24 h at 20-30 °C in cell-free extract. On the procedure:
Table 5 depicts variants of Streptomyces mobaraensis Tgase and improvement to stability relative to wild-type mature Tgase (SEQ ID NO. 2) as determined in Example 3. Numbering of amino acid positions is in reference to the mature S. mobaraensis Tgase sequence depicted in SEQ ID NO. 2. A “+” indicates an improvement between 1.2 and 2-fold. A “++” indicates an improvement greater than 2-fold.
To evaluate chemostability, Tgase samples in cell-free extract were assayed for activity, using the assay described in Example 4B, immediately after expression and again following a 24 hour incubation at 20-30° C. Mature Tgase variant residual activity was normalized to the residual activity of the wild-type and results are depicted in Table 5.
Protein functionalization by Tgase variants was determined by the fluorogenic labeling of casein using monodansylcadaverine (e.g., a commercially available kit such as the Transglutaminase Fluorogenic Activity Assay Kit, T036, Zedira, Germany). Tgase activity was monitored by measuring fluorescence (excitation wavelength 332 nm; emission wavelength 500 nm) using a BioTek Synergy H1 microplate reader. Transglutaminase-catalyzed covalent coupling (crosslinking) of monodansylcadaverine with N,N-dimethylcasein produces a product that causes a shift in intensity and wavelength of fluorescence of the dansyl group now linked to the casein. The relative transglutaminase activity is shown by increase of fluorescence intensity over time. Enzyme variant loading was optimized based on expression levels, ensuring enzyme was the rate limiting factor. Briefly, cell-free reactions (set up as described in Example 2A) were first diluted 10-fold using phosphate buffer, pH 7.4, and a 5 microliter aliquot was analyzed.
On to B1, for which the Stability entry was “+ (an improvement between 1.2 and 2-fold)”.
Under B2 stands “++ (an improvement greater than 2-fold)”; under B3, “++ (an improvement greater than 2-fold)”.
Then B4, with “++ (an improvement greater than 2-fold)”; and B5, with “+ (an improvement between 1.2 and 2-fold)”; and B6, with “+ (an improvement between 1.2 and 2-fold)”.
Under B7 stands “+ (an improvement between 1.2 and 2-fold)”; under B8, “++ (an improvement greater than 2-fold)”; under B9, “++ (an improvement greater than 2-fold)”.
As for B10, the Stability result is “++ (an improvement greater than 2-fold)”.
Then B11, with “++ (an improvement greater than 2-fold)”; and B12, with “+ (an improvement between 1.2 and 2-fold)”.
